# Measurements from patent US20260284212 (published 2026).
# Residue numbers refer to the chain shown, from its start.
# T1: human CD5 (human, UniProt P06127)
# T1 chain: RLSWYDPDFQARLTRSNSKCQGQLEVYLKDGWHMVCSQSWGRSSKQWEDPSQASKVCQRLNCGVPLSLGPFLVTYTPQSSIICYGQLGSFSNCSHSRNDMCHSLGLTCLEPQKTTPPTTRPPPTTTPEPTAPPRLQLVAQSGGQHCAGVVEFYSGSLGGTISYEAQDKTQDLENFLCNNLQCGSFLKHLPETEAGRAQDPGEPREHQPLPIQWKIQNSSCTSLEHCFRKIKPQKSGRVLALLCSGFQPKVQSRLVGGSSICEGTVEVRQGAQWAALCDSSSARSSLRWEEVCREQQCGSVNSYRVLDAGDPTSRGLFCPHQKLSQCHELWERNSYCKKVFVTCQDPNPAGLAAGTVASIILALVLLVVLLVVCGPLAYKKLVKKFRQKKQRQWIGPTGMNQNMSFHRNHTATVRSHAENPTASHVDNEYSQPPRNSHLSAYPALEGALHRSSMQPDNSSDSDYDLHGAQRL
# T2: human CD6 (human, UniProt P30203)
# T2 chain: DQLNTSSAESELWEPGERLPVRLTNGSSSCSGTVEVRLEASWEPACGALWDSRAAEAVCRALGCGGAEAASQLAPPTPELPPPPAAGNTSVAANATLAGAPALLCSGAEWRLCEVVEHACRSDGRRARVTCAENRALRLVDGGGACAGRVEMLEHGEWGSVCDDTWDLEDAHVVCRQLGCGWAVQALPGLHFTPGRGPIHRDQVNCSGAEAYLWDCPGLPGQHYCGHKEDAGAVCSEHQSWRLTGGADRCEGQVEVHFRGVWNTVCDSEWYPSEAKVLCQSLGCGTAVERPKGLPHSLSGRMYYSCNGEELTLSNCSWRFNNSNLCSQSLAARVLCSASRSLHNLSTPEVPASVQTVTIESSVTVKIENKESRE
# B1: A1CD601 VHH HuG1Fc (chimeric) (antibody, V domains shown)
# VH: QVQLQESGGGLVQAGGSLRLSCTASERTFSDYALGWFRQGPGKEREFVAAINWVGGSTYYADSVKGRFTISRDNAKNTLLLQMNSLKPEDTAVYFCVASWGAMPVLTHVINYWGKGTQVTVSS
# B2: CD601HH12 HuG1Fc (antibody, V domains shown)
# VH: B1 VH with Q5V, A14P, G40A, A75S, L80Y, K87R, P88A, F95Y, Q118L
# B3: CD601HH10 HuG1Fc (antibody, V domains shown)
# VH: B1 VH with A14P, T23S, G40A, A75S, L80Y, K87R, P88A, F95Y, Q118L
# B4: CD601HH14 HuG1Fc (antibody, V domains shown)
# VH: B1 VH with Q5V, A14P, T23S, G40A, L80Y, K87R, P88A, F95Y, Q118L
# B5: CD601HH8 HuG1Fc (antibody, V domains shown)
# VH: QVQLVESGGGLVQPGGSLRLSCSASERTFSDYAMGWFRQAPGKEREFVAAINWVGGSTYYADSVKGRFTISRDNSKNTLYLQMNSLRAEDTAVYYCVASWGAMPVLTHVINYWGKGTLVTVSS
# Tests used:
# human CD5 = biological target: T1, human CD5; assay: ELISA
# human CD6 [1] = biological target: T2, human CD6
# human CD6 [2] = biological target: T2, human CD6; assay: ELISA
Binder,binding result (human CD5),Kd (human CD6 [1]) [nM],EC50 (human CD6 [2]) [nM]
B1,no binding,0.21,0.053
B2,no binding,0.222,0.05
B3,no binding,0.247,0.066
B4,no binding,0.269,0.053
B5,no binding,0.24,0.053
